assay: soluble on expression in E. coli; label from the status in PepcDB or PDB records

**Q.** Which “soluble on expression in E. coli” value does the source give for “MFLTAVRRSSNVLKTFKPLYDRVLVERVAAETKTKGGIMLPEKSQGKVLEATVVSAGAGLRNEKGELVALTVKPGDRVLLPEYGGTKVVVEDKEYSIFRESDLLGVFH” here?
**A.** The value was “not soluble”.

**Q.** Which “soluble on expression in E. coli” value does the source give for “MFNFEKFWQHFNDEMRARFNEVAYNAWFKNTKPISYNQKTHELKIQVQNPVAKGYWEKNLSSQLIQSAYGYAGVELLPVFQISEDSDTPERIVTPEPQHNLQTTPTRAPQREFAKDLKLNEKYTFDNFVQGEGNKLAAGAALAVADSPGSFYNPLFIFGGVGLGKTHLMQAIGHQMLVERPNAKVVYIQSETFVNDFINSIKNKTQDKFREKYRTCDLLLVDDIQFFAKKEGIQEEFFHTFETLYNDQKQIVMTSDRLPTEIPDLSERLVSRFTWGLQVEITPPDLETRIAILRRKAEAEGLTIDDDTLDYIASQVDTNIRELEGALVKVQAYATIEKADIDINLAREALVDLKLVQKNRGLQIPKIQEVVANYFQTSTAELKGKKRVRQIVIPRQIAMYLSRELTDASLPKIGQEFGGKDHTTVMHAYDKIDKQMKTDADIKTAVFDLKQMLEHLEHHHHHH” here?
**A.** The value was “not soluble”.

**Q.** For “MFQALLTKLKNNAALGAAANNLNKFRSSNLGNQRRSVSVAVTSTSPKSEKPVAREHMIYDETHFVMQKSLGKLIEEKINPNVAKWEQDGRYPAHLVFKMLGDHGVFGVNKPEAFGGTGTDIAMATAIAEQMGAINCGSIPMSVMVQTDMSTPALAQFGSDALRERFLRPSITGDLVSSLAVSEPHAGSDVSAVHTHARRQGSDLIINGSKMWITNGGQADWACVLVNTSNTSNVHKNKSLVCVPLDAVGVHRSTPLDKLGMRSSDTVQLFFEDVRVPSSYIIGEEGRGFGYQMKQFNDERLVTVAVGLLPLQKCIDETIEYARDRLLFGKTLLDQQYIQFQLAELEAELEATRALLYRTVLARSRGDDVSMLTAMAKLKIGRLARAITDQCLQVWGGAGYLNENGISRAFRDFRLFSIGAGCDEVMMRIIHKAQSRRQLKKA”, which “soluble on expression in E. coli” value is on record?
**A.** Its value is “not soluble”.

**Q.** For “MFRIASSSYSQFIASANPSIQTRCISIARIDQKIKRGNSDRRVIHAKKFTKQTDSPASVAGDGFILSKTFLQNAIAHQPPSGLTPVGRDGGRDEKKLILHPKEIVEHLNKYVVGQEEAKKYLAVAVYQHYRRVENNLRVTEQWMLSEAVAAAKERKKMRKQNPEEEEYYPEYVQKSQRQILKDLEKRQDMILDKSNMILLGASGTGKTFMTQKLAEVLDVPIVICDCTTLTQAGYVGDDVDTVIQKLLAEAMGDIEKCQRGIVFLDEFDKIYTSSDPLHTSGNRDVSGKGVQQALLKLVEGSLVKVRDPLAPNSKVTIDTSNILFIASGAFSNIEHIVARRMDKRLVTSLLFHFPQ”, which “soluble on expression in E. coli” value is on record?
**A.** Its value is “not soluble”.

**Q.** For “MFRLLFVSPRIAPNTGNAIRTCAATGCELHLVEPLGFDLSEPKLRRAGLDYHDLASVTVHASLAHAWEALSPARVFAFTAQATTLFTNVGYRAGDVLMFGPEPTGLDEATLADTHITGQVRIPMLAGRRSLNLSNAAAVAVYEAWRQHGFAGAV”, which “soluble on expression in E. coli” value is on record?
**A.** The value was “not soluble”.

**Q.** Which “soluble on expression in E. coli” value does the source give for “MFRQLKKNLVATLIAAMTIGQVAPAFADSADTLPDMGTSAGSTLSIGQEMQMGDYYVRQLRGSAPLINDPLLTQYINSLGMRLVSHANSVKTPFHFFLINNDEINAFAFFGGNVVLHSALFRYSDNESQLASVMAHEISHVTQRHLARAMEDQQRSAPLTWVGALGSILLAMASPQAGMAALTGTLAGTRQGMISFTQQNEQEADRIGIQVLQRSGFDPQAMPTFLEKLLDQARYSSRPPEILLTHPLPESRLADARNRANQMRPMVVQSSEDFYLAKARTLGMYNSGRNQLTSDLLDEWAKGNVRQQRAAQYGRALQAMEANKYDEARKTLQPLLAAEPGNAWYLDLATDIDLGQNKANEAINRLKNARDLRTNPVLQLNLANAYLQGGQPQEAANILNRYTFNNKDDSNGWDLLAQAEAALNNRDQELAARAEGYALAGRLDQAISLLSSASSQVKLGSLQQARYDARIDQLRQLQERFKPYTKMLEHHHHHH” here?
**A.** The value was “soluble”.

**Q.** For “MFRREIQERENWRELARQFGFGFHSMYGQPYWDESAYYQFTLEQIEHDLESPTEELHQMCLSIVDEVVRCEQLLTKCAIPELMWEQVASSWQRKEPSLYSRLDFAYNGTSPAKLLENNADTPTSLFETGFWQWVWLEDVVNKGRIHQAADQFNILQDFLIERFAEIAKYQPGQTLHFSCCKYTEEDKATVQYLEDCAREVGLATAFVYVEDIGVTEDGKFVDVDRRAIRWMFKLYPWEFMFEEEYAKYLATANVNWLEPMWKSILSNKALLPLLWERFPNHPNLLPAYFANDPNASCLNDYVIKPLFSREGANIEIVKDGKRLVKTPGPYESKFNIVQKYHPLPKFGQNHTLIGSWLVNDRAAGISIREDSSLVTQDMARYIPHVILT”, which “soluble on expression in E. coli” value is on record?
**A.** Its value is “not soluble”.

**Q.** Which “soluble on expression in E. coli” value does the source give for “MFSPLECRLAVACKFQDDRYYKLFHQYFDLLAQVHSVVETMDGLWMLRVWRAQKFGPESIKERRERQLFHVTQFSFKRYIVPPNPRIGKAIEEFGKEYLIEINVYDEHRADLVSLNSGNFVAIQNVHAASTPHREIQILHGGGEAYQRGISTVPVDFEVDAFQNFKRKVESVLENVLYDENFIEFQQPEEVTENRVPEEPQLNIHKDPLPSDLPQ” here?
**A.** Its value is “soluble”.

**Q.** For “MFTKRHRITLLFNANKAYDRQVVEGVGEYLQASQSEWDIFIEEDFRARIDKIKDWLGDGVIADFDDKQIEQALADVDVPIVGVGGSYHLAESYPPVHYIATDNYALVESAFLHLKEKGVNRFAFYGLPESSGKRWATEREYAFRQLVAEEKYRGVVYQGLETAPENWQHAQNRLADWLQTLPPQTGIIAVTDARARHILQVCEHLHIPVPEKLCVIGIDNEELTRYLSRVALSSVAQGARQMGYQAAKLLHRLLDKEEMPLQRILVPPVRVIERRSTDYRSLTDPAVIQAMHYIRNHACKGIKVDQVLDAVGISRSNLEKRFKEEVGETIHAMIHAEKLEKARSLLISTTLSINEISQMCGYPSLQYFYSVFKKAYDTTPKEYRDVNSEVML”, which “soluble on expression in E. coli” value is on record?
**A.** Its value is “soluble”.

**Q.** Which “soluble on expression in E. coli” value does the source give for “MFVEALKRQNPALISAALSLWQQGKIAPDSWVIDVDQILENGKRLIETARLYGIELYLMTKQFGRNPWLAEKLLALGYSGIVAVDYKEARVMRRAGLPVAHQGHLVQIPCHQVADAVEQGTDIITVFTLDKAREVSAAAVKAGRVQPVLLKVYSDDDFLYPGQESGFVQHSLHEVIAEIKKLPGLHLAGLTHFPCLLWDEAAGKVLPTPNLHTLVQARDQLAKSGIAIEQLNVPSATSCTSLPLLAEYGATHAEPGHALTGTIPANQQGDQPERIAMLWLSEISHHFRGDSYCYGGGYYRRGHAQHALVFTPENQKITETNLKTVDDSSIDYTLPLAGEYPVSSAVVLCFRTQIFVTRSDVVLVSGIQRGEPEIVGRYDSLGNPLEA” here?
**A.** The value was “not soluble”.

**Q.** Which “soluble on expression in E. coli” value does the source give for “MFVQTTNQSNTLSNFILTCAFPAGAPVTNYPPSLSHTSSPGSSVYEASTKTEAVHKLESYQLQASRDPCTIPDELREEMKRMKRQEGAFKTALCLSHKRGKTCIYGEQCKFAHGVHELRCQQAKKNHRNYKTVLCDKFTTTGYCKYGIRCQFIHRSMDATNVTRPIDTADFKLDVQSDLSRAFALDSSSFLPNWHCSALLN” here?
**A.** The value was “not soluble”.

**Q.** Which “soluble on expression in E. coli” value does the source give for “MGAGSQTTGAGQKKVQTITVGTGTQFPNICFIDEKGDLTGYDVELIKELDKRLPHYKFTFKTMEFSNLLVSLGQHKVDIVAHQMEKSKEREKKFLFNKVAYNHFPLKITVLQNNDTIRGIEDLKGKRVITSATSNGALVLKKWNEDNGRPFEIAYEGQGANETANQLKSGRADATISTPFAVDFQNKTSTIKEKTVGNVLSNAKVYFMFNKNEQTLSDDIDKALQEIIDDGTLKRLSLKWLGDDYSKEQYLEHHHHHH” here?
**A.** Its value is “soluble”.

**Q.** Which “soluble on expression in E. coli” value does the source give for “MGANGSTEDYNAIAEETRNYQIQEAARRKEHLEALERQDAKRRETLAETTRAQLAAAEAEQKRKDEMQQKMMESNLAAQVARNKRIDNAQNQQNLNIEKEIENSNNWLDKQRTANQAVMAQRYTDHQNVLTREKERLTETEIRLENNLVDAKKMLENTQNQFNDDKIGYHEKKVQQMNENASKIELLVSQTTNLVLEQEKNDIVHKLAIQGMEQRTILNRGAIIQAQSLDSVEREFIDAVNSTRQKGNEVANSISRMGSYAFQLKPEDPVWSRTSQVAYCKKEIQKVDLLLEVLSDNTEEISKQRENRNQEVLRCHAVACLIQNAITTVRNSLNQFGASLQENTFTNCIGYYTDLLEKNKTLTDVIVQLPAVSRSNHTTSAIMYSSQRFAIDVQNDRLALEQKGQLALQNMINGNGGNTT” here?
**A.** Its value is “not soluble”.

**Q.** With “MGARCSKLSVCWWPPHFKSPLLENGAAADDGSGVPVFAEYSLDELRVATDGFSPERIVSEHGEKAPNVVYRGTLFSTGRTVAIKRFGRSAWPDSRQFLEEAMAVGQLRSVRLANLIGCCCENGERLLVAEFMPHETLAKHLFHWETKPLSWAMRVRAAFYVAQALEYCSSKGRALYHDLHAYRVLFDVDGNPRLSCFGLMKNSRDGKSYSTNLAFTPPEYLKTGRVIPESVVYSFGTILLDLLSGKHIPPSHALDLIRGKNYLVLMDSCLEGHVSSSDGTELIRLASRCLQYEGRDRPNLKSVVSALGNLQKDASAPSHALLGIQHDKENTERISLSAIAKVYARADLDEVHEMLENDGYCEDERATFEVSFHSWTGQQVSDSILVKKHGDSAFQSKDFATAVECYSRFIDTGVMVSPTMLARRSFVYMVLGKLQEGLADAKKAADISPEWPTAHYLQGMAYLAMGMEPEGHEELKQGAALEAERNAR” as the sequence, how does the “soluble on expression in E. coli” value read?
**A.** Its value is “soluble”.

**Q.** For “MGARQRMVASKGAVLSMLMDAYQKRDRVGLIAFKGDSAELLLPPTSSIELAQKYLQEMPTGGKTPISRGLVKGYEIIKSELRRDPDTCPFMVLISDGRANVSMNGEPPLHEIITIASRLKEEGIQSAVIDTESSMIKFGFAQQISTALGATYLTLENLKADSIVNAVRASAPFEIMMHPGVSSV”, which “soluble on expression in E. coli” value is on record?
**A.** The value was “not soluble”.

**Q.** Which “soluble on expression in E. coli” value does the source give for “MGAVVVKDLRKRIGKKEILKGISFEIEEGEIFGLIGPNGAGKTTTLRIISTLIKPSSGIVTVFGKNVVEEPHEVRKLISYLPEEAGAYRNMQGIEYLRFVAGFYASSSSEIEEMVERATEIAGLGEKIKDRVSTYSKGMVRKLLIARALMVNPRLAILDEPTSGLDVLNAREVRKILKQASQEGLTILVSSHNMLEVEFLCDRIALIHNGTIVETGTVEELKERYKAQNIEEVFEEVVKCSENF” here?
**A.** Its value is “not soluble”.

**Q.** For “MGCMIQSFRCKSTQAMFEGECPQRFSAIQAVAERKLAQLEAAQTLDFLRSPPGNRLEKLAGDREGQWSIRINAQWRICFTWSDLDPADVEIVDYH”, which “soluble on expression in E. coli” value is on record?
**A.** The value was “not soluble”.

**Q.** With “MGCSGGDATACANLAQMYENKKNADSNDKENALQLYAVACQGGDMLACNNLGWMFANGSGVPKDYYKAISYYKFSCENGNDMGCYNLGLMSNVNNIYGIDKAQLSQVDLNYLACNAGDMMGCANLGWIYANGDLGAPLNNHYAAKYFQMACDGGILGSCNNLGVLYQKGLGVPQDDQRALDLFSYACDNGFESSCRNYGNFKEHLLRVNPNYGRLFMPYNSYDIPLEHHHHHH” as the sequence, how does the “soluble on expression in E. coli” value read?
**A.** The value was “not soluble”.

Source: the DeepSol protein solubility set
